Source: patent US20140179896A1 (published 2014)

Biological target: T1, human vascular endothelial growth factor receptor-2 Fc chimera (KDR-Fc) (human, UniProt P35968 20-764)
T1 construct: range 1-764; purchased from R&D Systems; also called hKDR; human VEGF-R2-Fc; not shown: human IgG1 Fc
Test: radioactive equilibrium binding, 1 nM KDR-Fc
How it was run: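 Tracer: ³⁵S-Met protein from reticulocyte lysate, Flag-bead purified, no nucleic acid tail. 0.2/0.5 nM binder + 0–200 nM receptor-Fc, 30° C 1 h, buffer B; Protein A bead capture 10 min RT; 0.1 M KOH elution; scintillation count.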

T1 sequence (P35968 20-764 limits assumed, change not shown, form in doubt): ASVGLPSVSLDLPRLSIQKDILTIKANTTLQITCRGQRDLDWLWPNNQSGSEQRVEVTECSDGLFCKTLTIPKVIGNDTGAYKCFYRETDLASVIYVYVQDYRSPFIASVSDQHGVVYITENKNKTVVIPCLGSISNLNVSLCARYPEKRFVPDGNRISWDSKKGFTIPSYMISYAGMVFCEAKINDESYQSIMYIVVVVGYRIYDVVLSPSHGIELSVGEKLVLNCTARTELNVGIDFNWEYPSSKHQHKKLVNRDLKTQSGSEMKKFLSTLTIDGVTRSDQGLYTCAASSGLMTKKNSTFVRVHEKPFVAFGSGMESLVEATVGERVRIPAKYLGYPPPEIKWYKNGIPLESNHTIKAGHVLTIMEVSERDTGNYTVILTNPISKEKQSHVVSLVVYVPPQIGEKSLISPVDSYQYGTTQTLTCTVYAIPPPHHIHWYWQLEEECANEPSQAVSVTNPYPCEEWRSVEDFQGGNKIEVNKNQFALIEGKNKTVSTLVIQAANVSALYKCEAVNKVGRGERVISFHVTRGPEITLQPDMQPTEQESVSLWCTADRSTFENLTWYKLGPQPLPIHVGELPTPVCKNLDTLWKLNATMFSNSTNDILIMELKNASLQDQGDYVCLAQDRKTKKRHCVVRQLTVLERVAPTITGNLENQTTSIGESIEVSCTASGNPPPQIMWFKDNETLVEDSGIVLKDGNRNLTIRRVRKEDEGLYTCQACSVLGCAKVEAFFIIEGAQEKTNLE

B1: 1′DelA9 PR4 (designed binder)
chain: EVVAATPTSLLISWRHPHFPTRYYRITYGETGGNSPVQEFTVPLQPPTATISGLKPGVDYTITGYAVTLAQNDHELMTPISINYRT
notes: tag left out
  Binding to 1 nM KDR, %: 13%

B2: 3H9 PR3 (designed binder)
chain: EVVAATPTSLLISWRHPHFPTRYYRITYGETGGNSPVQEFTVPLQPPTATISGLKPGVDYTITGYAVTVSQQNHELLTPISINYRT
notes: tag left out
  Binding to 1 nM KDR, %: 11%

B3: 2′DelB9 PR4 (designed binder)
chain: EVVAATPTSLLISWRHPHFPTRYYRITYGETGGNSPVQEFTVPLQPPTATISGLKPGVDYTITGYAVTVGPTDHELLTPISINYRT
notes: tag left out
  Binding to 1 nM KDR, %: 11%

B4: 3′D12 PR4 (designed binder)
chain: EVVAATPTSLLISWRHPHFPTRYYRITYGETGGNSPVQEFTVPLQPPTATISGLKPGVDYTITGYAVTGEQNDYELLVPISINYRT
notes: tag left out
  Binding to 1 nM KDR, %: 7%

B5: 1′DelE12 PR4 (designed binder)
chain: EVVAATPTSLLISWRHPHFPTRYYRITYGETGGNSPVQEFTVPLQPPTATISGLKPGVDYTITGYAVTVAQSDHELFTPISINYRT
notes: tag left out
  Binding to 1 nM KDR, %: 13%

B6: 3D4 PR3 (designed binder)
chain: EVVAATPTSLLISWRHPHFPTRYYRITYGETGGNSPVQEFTVPLQPPTATISGLKPGVDYTITGYAVTVGWNDHELITPISINYRT
notes: tag left out
  Binding to 1 nM KDR, %: 10%

B7: 1′DelB10 PR4 (designed binder)
chain: EVVAATPTSLLISWRHPHFPTRYYRITYGETGGNSPVQEFTVPLQPPTATISGLKPGVDYTITGYAVTVARNDHELMTPISINYRT
notes: tag left out
  Binding to 1 nM KDR, %: 11%

B8: 1′DelB7 PR4 (designed binder)
chain: EVVAATPTSLLISWRHPHFPTRYYRITYGETGGNSPVQEFTVPLQPPTATISGLKPGVDYTITGYAVTVAQNDHELKTPISINYRT
notes: tag left out
  Binding to 1 nM KDR, %: 8%

B9: 1′DelG9 PR4 (designed binder)
chain: EVVAATPTSLLISWRHPHFPTRYYRITYGETGGNSPVQEFTVPLQPPTATISGLKPGVDYTITGYAVTVAQSDHELMTPISINYRT
notes: tag left out
  Binding to 1 nM KDR, %: 10%

B10: 3C5 PR3 (designed binder)
chain: EVVAATPTSLLISWRHPHFPTRYYRITYGETGGNSPVQEFTVPLQPPTATISGLKPGVDYTITGYAVTGDHNDRELMTPISINYRT
notes: tag left out
  Binding to 1 nM KDR, %: 12%

B11: 1′DelD3 PR4 (designed binder)
chain: EVVAATPTSLLISWRHPHFPTRYYRITYGETGGNSPVQEFTVPLQPPTATISGLKPGVDYTITGYAVTLAQNNHELITPISINYRT
notes: tag left out
  Binding to 1 nM KDR, %: 12%

B12: 1′DelC10 PR4 (designed binder)
chain: EVVAATPTSLLISWRHPHFPTRYYRITYGETGGNSPVQEFTVPLQPPTATISGLKPGVDYTITGYAVTVAKNDHELITPISINYRT
notes: tag left out
  Binding to 1 nM KDR, %: 8%

B13: 3E6 PR3 (designed binder)
chain: EVVAATPTSLLISWRHPHFPTRYYRITYGETGGNSPVQEFTVPLQPPTATISGLKPGVDYTITGYAVTVPQNGHELITMISINYRT
notes: tag left out
  Binding to 1 nM KDR, %: 12%

B14: 3G1 PR3 (designed binder)
chain: EVVAATPTSLLISWRHPHFPTRYYRITYGETGGNSPVQEFTVPLQPPTATISGLKPGVDYTITGYAVTMAQNVRELLTPISINYRT
notes: tag left out
  Binding to 1 nM KDR, %: 13%

B15: 3F11 PR3 (designed binder)
chain: EVVAATPTSLLISWRHPHFPTRYYRITYGETGGNSPVQEFTVPLQPPTATISGLKPGVDYTITGYAVTVGLTDHVLLTPISINYRT
notes: tag left out
  Binding to 1 nM KDR, %: 10%

B16: 3F5 PR3 (designed binder)
chain: EVVAATPTSLLISWRHPHFPTRYYRITYGETGGNSPVQEFTVPLQPPTATISGLKPGVDYTITGYAVTVAYNEHELYTPISINYRT
notes: tag left out
  Binding to 1 nM KDR, %: 11%

B17: 1′DelH1 PR4 (designed binder)
chain: EVVAATPTSLLISWRHPHFPTRYYRITYGETGGNSPVQEFTVPLQPPTATISGLKPGVDYTITGYAVTVAQNGHELITPISINYRT
notes: tag left out
  Binding to 1 nM KDR, %: 9%

B18: 1′DelE11 PR4 (designed binder)
chain: EVVAATPTSLLISWRHPHFPTRYYRITYGETGGNSPVQEFTVPLQPPTATISGLKPGVDYTITGYAVTVAQNDRELITPISINYRT
notes: tag left out
  Binding to 1 nM KDR, %: 9%

B19: 2′Del E12 PR4 (designed binder)
chain: EVVAATPTSLLISWRHPHFPTRYYRITYGETGGNSPVQEFTVPLQPPTATISGLKPGVDYTITGYAVTEGPNGHELITPISINYRT
notes: tag left out
  Binding to 1 nM KDR, %: 13%

B20: 3G10 PR3 (designed binder)
chain: EVVAATPTSLLISWRHPHFPTRYYRITYGETGGNSPVQEFTVPLQPPTATISGLKPGVDYTITGYAVTVVHNGHEILTPISINYRT
notes: tag left out
  Binding to 1 nM KDR, %: 10%

B21: 2′Del F12 PR4 (designed binder)
chain: EVVAATPTSLLISWRHPHFPTRYYRITYGETGGNSPVQEFTVPLQPPTATISGLKPGVDYTITGYAVTLTQHDHELLTPISINYRT
notes: tag left out
  Binding to 1 nM KDR, %: 7%

B22: 1′DelC2 PR4 (designed binder)
chain: EVVAATPTSLLISWRHPHFPTRYYRITYGETGGNSPVQEFTVPLQPPTATISGLKPGVDYTITGYAVTVDRNDHELFTPISINYRT
notes: tag left out
  Binding to 1 nM KDR, %: 13%

B23: 2′DelH2 PR4 (designed binder)
chain: EVVAATPTSLLISWRHPHFPTRYYRITYGETGGNSPVQEFTVPLQPPTATISGLKPGVDYTITGYAVTVSQYGHELITPISINYRT
notes: tag left out
  Binding to 1 nM KDR, %: 8%

B24: 3F4 PR3 (designed binder)
chain: EVVAATPTSLLISWRHPHFPTRYYRITYGETGGNSPVQEFTVPLQPPTATISGLKPGVDYTITGYAVTMGYEDHELITPISINYRT
notes: tag left out
  Binding to 1 nM KDR, %: 10%

B25: 3G5 PR3 (designed binder)
chain: EVVAATPTSLLISWRHPHFPTRYYRITYGETGGNSPVQEFTVPLQPPTATISGLKPGVDYTITGYAVTLGENDRKLITPISINYRT
notes: tag left out
  Binding to 1 nM KDR, %: 13%

B26: 1′DelC6 PR4 (designed binder)
chain: EVVAATPTSLLISWRHPHFPTRYYRITYGETGGNSPVQEFTVPLQPPTATISGLKPGVDYTITGYAVTVAQNEHELLTPISINYRT
notes: tag left out
  Binding to 1 nM KDR, %: 12%

B27: 1′DelH9 PR4 (designed binder)
chain: EVVAATPTSLLISWRHPHFPTRYYRITYGETGGNSPVQEFTVPLQPPTATISGLKPGVDYTITGYAVTVGQNDHELITPISINYRT
notes: tag left out
  Binding to 1 nM KDR, %: 10%

B28: 3D11 PR3 (designed binder)
chain: EVVAATPTSLLISWRHPHFPTRYYRITYGETGGNSPVQEFTVPLQPPTATISGLKPGVDYTITGYAVTLGQENQELITPISINYRT
notes: tag left out
  Binding to 1 nM KDR, %: 10%

B29: 1′DelH6 PR4 (designed binder)
chain: EVVAATPTSLLISWRHPHFPTRYYRITYGETGGNSPVQEFTVPLQPPTATISGLKPGVDYTITGYAVTVGQYDHELITPISINYRT
notes: tag left out
  Binding to 1 nM KDR, %: 6%

B30: 3F1 PR3 (designed binder)
chain: EVVAATPTSLLISWRHPHFPTRYYRITYGETGGNSPVQEFTVPLQPPTATISGLKPGVDYTITGYAVTLTHNEQYLFTPISINYRT
notes: tag left out
  Binding to 1 nM KDR, %: 9%

B31: 2′DelB11 PR4 (designed binder)
chain: EVVAATPTSLLISWRHPHFPTRYYRITYGETGGNSPVQEFTVPLQPPTATISGLKPGVDYTITGYAVTVGQNDHELMTPISINYRT
notes: tag left out
  Binding to 1 nM KDR, %: 11%

B32: 3′D4 PR4 (designed binder)
chain: EVVAATPTSLLISWRHPHFPTRYYRITYGETGGNSPVQEFTVPLQPPTATISGLKPGVDYTITGYAVTLAHNDRELITPISINYRT
notes: tag left out
  Binding to 1 nM KDR, %: 12%

B33: 1′DelH7 PR4 (designed binder)
chain: EVVAATPTSLLISWRHPHFPTRYYRITYGETGGNSPVQEFTVPLQPPTATISGLKPGVDYTITGYAVTVGQNDQELLTPISINYRT
notes: tag left out
  Binding to 1 nM KDR, %: 11%

B34: 1′DelG11 PR4 (designed binder)
chain: EVVAATPTSLLISWRHPHFPTRYYRITYGETGGNSPVQEFTVPLQPPTATISGLKPGVDYTITGYAVTLAQNGHVLITPISINYRT
notes: tag left out
  Binding to 1 nM KDR, %: 11%

B35: 3′A3 PR4 (designed binder)
chain: EVVAATPTSLLISWRHPHFPTRYYRITYGETGGNSPVQEFTVPLQPPTATISGLKPGVDYTITGYAVTRAQNDHELITPISINYRT
notes: tag left out
  Binding to 1 nM KDR, %: 9%

B36: 1′DelC5 PR4 (designed binder)
chain: EVVAATPTSLLISWRHPHFPTRYYRITYGETGGNSPVQEFTVPLQPPTATISGLKPGVDYTITGYAVTLAQNDHEIMTPISINYRT
notes: tag left out
  Binding to 1 nM KDR, %: 11%

B37: 3A8 PR3 (designed binder)
chain: EVVAATPTSLLISWRHPHFPTRYYRITYGETGGNSPVQEFTVPLQPPTATISGLKPGVDYTITGYAVTEAHHGHELMIPISINYRT
notes: tag left out
  Binding to 1 nM KDR, %: 12%

B38: 2′DelB10 PR4 (designed binder)
chain: EVVAATPTSLLISWRHPHFPTRYYRITYGETGGNSPVQEFTVPLQPPTATISGLKPGVDYTITGYAVTVTHNDHELLTPISINYRT
notes: tag left out
  Binding to 1 nM KDR, %: 11%

B39: 1′DelC4 PR4 (designed binder)
chain: EVVAATPTSLLISWRHPHFPTRYYRITYGETGGNSPVQEFTVPLQPPTATISGLKPGVDYTITGYAVTVAQSNHELMTPISINYRT
notes: tag left out
  Binding to 1 nM KDR, %: 9%
